In patent US9850292B2, “Compositions which regulate the epithelial brush border Na+/H+ exchanger NHE3 and their methods of use in gastrointestinal disease” (THE JOHNS HOPKINS UNIVERSITY, priority 2012, dated 2017):
Read-outs that look alike come from different tables or passages of the source. The star is where a group is joined. Biotin = O=C1N[C@H]2[C@H](CS[C@H]2CCCCC(=O)*)N1

Experiments:
NHE3 = target: T1, NHE3 (Mus musculus, UniProt G3X939); assay: NHE3 activity in mouse jejunum in vitro, BCECF/microscopy; format: cell-based; settings: FIG. 4B
T1 construct: from tissue; host or cells: mouse jejunum, exposed in vitro
T1 sequence (G3X939 27-829): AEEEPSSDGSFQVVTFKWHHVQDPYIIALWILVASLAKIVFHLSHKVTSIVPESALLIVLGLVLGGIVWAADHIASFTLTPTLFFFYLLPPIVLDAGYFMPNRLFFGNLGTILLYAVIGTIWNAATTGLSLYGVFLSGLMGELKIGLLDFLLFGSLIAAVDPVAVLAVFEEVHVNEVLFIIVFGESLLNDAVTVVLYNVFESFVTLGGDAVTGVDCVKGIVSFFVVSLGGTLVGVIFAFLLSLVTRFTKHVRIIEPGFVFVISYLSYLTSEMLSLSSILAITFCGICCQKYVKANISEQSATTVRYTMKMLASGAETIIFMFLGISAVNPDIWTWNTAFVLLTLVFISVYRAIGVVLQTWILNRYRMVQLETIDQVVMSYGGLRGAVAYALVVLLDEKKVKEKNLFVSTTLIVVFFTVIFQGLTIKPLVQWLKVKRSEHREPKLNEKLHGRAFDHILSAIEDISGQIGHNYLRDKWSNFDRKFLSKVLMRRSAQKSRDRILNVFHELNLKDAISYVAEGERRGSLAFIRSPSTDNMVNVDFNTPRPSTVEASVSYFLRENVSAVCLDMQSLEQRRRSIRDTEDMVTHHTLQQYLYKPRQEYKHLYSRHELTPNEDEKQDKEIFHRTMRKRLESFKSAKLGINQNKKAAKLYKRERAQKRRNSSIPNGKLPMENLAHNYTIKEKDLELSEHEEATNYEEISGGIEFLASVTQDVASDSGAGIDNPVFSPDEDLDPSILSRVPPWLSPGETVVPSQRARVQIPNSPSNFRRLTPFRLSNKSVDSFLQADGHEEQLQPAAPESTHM
Protocol: (§1) FIG. 4A is a bar graph depicting the results when Caco-2/HA-NHE3 cells were exposed to IRCX-CP (400 nM) for 15 minutes then basal, carbachol (cch) (10 μM) inhibited and EGF (200 ng/ml) stimulated NHE3 were determined (n=4). FIG. 4B is another bar graph depicting the effects when mouse jejunum was exposed in vitro to IRCX-CP (400 nM) and/or forskolin (10 μM) for 15 minutes with NHE3 activity determined by BCECF.
The fluorescent peptides described above were then loaded into PS120/NHERF2/NHE3, Caco2/NHE3 cells, and mouse small intestine. It was established that loading reaches a maximum in 15 minutes (37° C.) (FIG. 3) and is stable for at least 6 hours. To evaluate the effect of these peptides on NHE3 regulation, PS120 and Caco-2 cells were exposed to 400-1600 nM Bodipy 577/618-peptide and used BCECF/fluorometry to characterize the peptide's effects on basal NHE3 activity and after Ca^2+ elevation and EGF exposure. In studies in both cell types, all peptide concentrations studied stimulated basal NHE3 activity by about 40%, and reduced Ca^2+ inhibition of NHE3 by about 50% in PS 120 cells (data not shown) and entirely in Caco-2 cells (FIG. 4A).

rabbit NHE3 (rNHE3) [1] = target: T2, rabbit NHE3 (rNHE3) (Oryctolagus cuniculus, UniProt P26432); assay: BCECF/fluorometry Na+/H+ exchange activity in Caco-2 cells; format: cell-based; parameters: expressed in transfected cells; host or cells: Caco-2BBe cells, transient adenoviral infection (ADLOX.HTM shuttle vector, CMV promoter)
T2 sequence (P26432 30-832): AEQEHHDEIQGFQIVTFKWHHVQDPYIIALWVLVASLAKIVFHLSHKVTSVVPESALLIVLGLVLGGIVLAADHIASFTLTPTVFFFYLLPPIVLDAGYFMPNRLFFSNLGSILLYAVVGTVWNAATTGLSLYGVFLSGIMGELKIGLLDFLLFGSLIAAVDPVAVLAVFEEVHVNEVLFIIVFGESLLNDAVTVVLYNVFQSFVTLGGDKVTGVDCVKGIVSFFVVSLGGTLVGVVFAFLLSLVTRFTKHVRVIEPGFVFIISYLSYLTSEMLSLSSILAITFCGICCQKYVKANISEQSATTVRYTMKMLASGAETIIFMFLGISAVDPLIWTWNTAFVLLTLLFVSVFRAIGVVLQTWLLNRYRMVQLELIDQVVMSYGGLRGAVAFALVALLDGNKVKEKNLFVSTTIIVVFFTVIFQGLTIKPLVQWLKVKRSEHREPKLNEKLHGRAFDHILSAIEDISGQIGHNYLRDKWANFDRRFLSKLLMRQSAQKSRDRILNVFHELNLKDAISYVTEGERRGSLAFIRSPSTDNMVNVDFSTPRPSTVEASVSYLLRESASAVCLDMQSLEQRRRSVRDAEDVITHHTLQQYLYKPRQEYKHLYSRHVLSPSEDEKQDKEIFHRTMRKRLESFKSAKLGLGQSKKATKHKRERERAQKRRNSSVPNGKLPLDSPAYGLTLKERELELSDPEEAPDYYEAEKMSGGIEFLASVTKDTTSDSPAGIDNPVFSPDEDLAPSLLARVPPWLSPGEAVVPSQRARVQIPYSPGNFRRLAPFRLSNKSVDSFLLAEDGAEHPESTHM
Protocol: as §1
Cell Lines. PS120 fibroblasts lack all endogenous plasma membrane NHEs, NHERF1 (minimal expression), NHERF2, NHERF3 and NHERF4. These cells, when stably expressing rabbit NHE3 with a C-terminal VSV-G protein epitope tag and NHERF2, are called PS120/NHE3/NHERF2 cells (or PS120/E3V/NHERF2 cells), as described (stable cell lines made using pcDNA 3.1, G418 and hygromycin, Invitrogen). Caco-2BBe cells express all four members of the NHERF gene family and small amounts NHE3 (Caco-2BBe/3HA-NHE3 cells). Triple HA-tagged rabbit NHE3 was expressed by adenovirus into Caco-2BBe cells for transport and biochemical analysis.
Adenoviral Constructs/Infection. Caco-2BBe cells which endogenously express the four members of the NHERF gene family and small amounts of NHE3 were transiently infected with triple HA-tagged rNHE3 previously engineered into replication-deficient Adeno-viral shuttle vector ADLOX.HTM under a cytomegalovirus promoter. Caco-2BBe cells were first grown on Transwell filters (Corning) until 12 days post-confluence in “Caco-2 medium.” Cells were then treated with serum-free media containing 6 mM EGTA for 2 hours at 37° C. to allow the tight junctions to open, further exposing apical and basolateral surfaces to the virus. […]
Measurement of Na^+/H^+ Exchange. Cellular Na^+/H^+ exchange activity in PS 120 cells grown to about 70% confluency on glass coverslips was determined fluorometrically using the intracellular pH-sensitive dye 2′,7′-bis(carboxyethyl)5-6-carboxyfluoresceinacetoxymethyl ester (BCECF-AM, 5μM; Molecular Probes, Eugene, Oreg.). […] At the end of each experiment, the fluorescence ratio was calibrated to pHi using the high potassium/nigericin method. Na^+/H^+ exchange activity data were calculated as the product of Na^+ dependent changes in pHi times the buffering capacity at each pHi, and individual points shown in the figures are ratios of Na^+/H^+ exchange calculated at multiple pHi values using at least three coverslips per condition in a single experiment. Kinetics of Na^+/H^+ exchange were analyzed by Hill plot using Origin (Microcal Software) to estimate Vmax and K′(H^+)i in individual experiments. Means+/−S.E.M. were determined from at least three separate experiments. […]

[2] = tested on: murine jejunum exposed to cholera toxin; settings: mouse, in vivo
rabbit NHE3 (rNHE3) [3] = target: T2, rabbit NHE3 (rNHE3); format: cell-based; parameters: amplified from pcDNA 3.1 containing the full-length NHE3V (pcDNA 3.1/NHE3V); expressed in transfected cells

In the case of “Bodipy 577/618-peptide: 38 aa rabbit NHE3 aa 568-605 peptide (SEQ ID NO: 1), biotin on N-terminus, C-terminus linked to Bodipy 577/618 maleimide (Biotin-NVDFSTPRPSTVEASVSYLLRESASAVCLDMQSLEQRR-{Bodipy 577/618 maleimide}; listed as Oryctolagus cuniculus)”, the “stimulation of basal NHE3 activity” value (NHE3; 400 nM, 15 minutes) is reported as 60%, the “prevention of NHE3 inhibition by forskolin” value (NHE3; forskolin 10 μM, 400 nM peptide) is reported as “totally prevented” and the “stimulation of basal NHE3 activity” value (rabbit NHE3 (rNHE3) [1]; 400-1600 nM peptide, all concentrations studied) is reported as “about 40%”. The “reduction of Ca2+ inhibition of NHE3” value (rabbit NHE3 (rNHE3) [1]; after Ca2+ elevation (carbachol 10 μM), FIG. 4A) was “entirely”, the “peptide concentration at which effects were maximum” value (rabbit NHE3 (rNHE3) [1]; effect at saturation) was 400 nM and the “cholera toxin fluid accumulation” value [2] was “prevented cholera toxin fluid accumulation”. The “peptide concentration at which effects were maximum” value (rabbit NHE3 (rNHE3) [3]) was 400 nM, the “reduction of Ca2+ inhibition of NHE3” value (rabbit NHE3 (rNHE3) [3]) was “about 50%” and the “stimulation of basal NHE3 activity” value (rabbit NHE3 (rNHE3) [3]) was “about 40%”.

For “NVDFSTPRPSTVEASVSYLLRESASAVCLDMQSLEQRR (listed as Oryctolagus cuniculus) [peptide without Bodipy]”, the “effect on NHE3 activity” value (rabbit NHE3 (rNHE3) [1]) was “did not alter NHE3 activity” and the “effect on NHE3 activity” value (rabbit NHE3 (rNHE3) [3]) was “did not alter NHE3 activity”.
